Laboratory results from paper PMC9605926, “Safety of [^177Lu]Lu-NeoB treatment: a preclinical study characterizing absorbed dose and acute, early, and late organ toxicity” (European Journal of Nuclear Medicine and Molecular Imaging, 2022).

Test system: healthy Balb/c mice
Test: Toxicity study, histopathology (5-point grade); 3 i.v. injections at 7-day interval; control group 2 = 3× 1200 pmol [175Lu]Lu-NeoB; treatment groups 1/2/3 = 3× 40 MBq/400 pmol, 80 MBq/800 pmol, 120 MBq/1200 pmol [177Lu]Lu-NeoB
Format: in vivo, mouse
Description: Five different experimental groups (10 male and 10 female healthy animals per group; n = 100) were included in the radiotoxicity study and treated as follows: control group 1: 3 × vehicle (PBS + kolliphor HS 15 (1 mg/mL)); control group 2: 3 × 1200 pmol [^175Lu]Lu-NeoB; treatment group 1: 3 × 40 MBq/400 pmol [^177Lu]Lu-NeoB; treatment group 2: 3 × 80 MBq/800 pmol [^177Lu]Lu-NeoB; and treatment group 3: 3 × 120 MBq/1200 pmol [^177Lu]Lu-NeoB.
Animals received 3 injections with an interval of 7 days between each injection.
At 5, 19, and 43 weeks after the first injection, 3–4 male and 3–4 female animals of each group were sacrificed by isoflurane overdose after a blood sample was taken by retro-orbital puncture. Hereafter, the axillary lymph nodes, mesenteric lymph nodes, skin, mammary fat pad, sternum, pancreas, adrenal glands, kidneys, spleen, liver, gallbladder, stomach, duodenum, jejunum, ileum, caecum, colon, rectum, testes (M), epididymis (M), seminal vesicles (M), prostate gland (M), ovaries (F), oviducts (F), uterus-cervix (F), vagina (F), bladder, ureters, sciatic nerve, skeletal muscle, femur, lungs, trachea, esophagus, thymus, thyroid gland, aorta, heart, brain, pituitary gland, eyes, harderian glands, tongue, spinal column, and the tail were collected and analyzed macroscopically. All organs and tissues were formalin fixed (4% buffered formaldehyde) and shipped to the European Research Biology Centre (ERBC, Pomezia, Rome, Italy) where histological sampling, embedding, sectioning (5 µm thick), and hematoxylin–eosin staining were performed according to standard guidelines. All organs and tissues were analyzed microscopically by an experienced pathologist. A 5-point grading scale was used: 1: minimal change, 2: mild change, 3: moderate change, 4: marked change, 5: severe change.

[1] = female wk 5, treatment group 1, grade 1
[2] = female wk 5, treatment group 1, grade 2
[3] = female wk 5, treatment group 2, grade 1
[4] = female wk 5, treatment group 2, grade 2
[5] = female wk 5, treatment group 3, grade 1
[6] = female wk 5, treatment group 3, grade 2
[7] = female wk 19, treatment group 1, grade 1
[8] = female wk 19, treatment group 1, grade 2
[9] = female wk 19, treatment group 2, grade 1
[10] = female wk 19, treatment group 2, grade 2
[11] = female wk 19, treatment group 3, grade 1
[12] = female wk 19, treatment group 3, grade 2
[13] = female wk 43, treatment group 1, grade 1
[14] = female wk 43, treatment group 1, grade 4
[15] = female wk 43, treatment group 2, grade 1
[16] = female wk 43, treatment group 2, grade 2
[17] = female wk 43, treatment group 3, grade 2
[18] = female wk 43, treatment group 3, grade 3
[19] = female wk 43, treatment group 3, grade 4
[20] = male wk 5, treatment group 1, grade 1
[21] = male wk 5, treatment group 1, grade 2
[22] = male wk 5, treatment group 3, grade 1
[23] = male wk 5, treatment group 3, grade 2
[24] = male wk 19, treatment group 1, grade 1
[25] = male wk 19, treatment group 1, grade 2
[26] = male wk 19, treatment group 2, grade 1
[27] = male wk 19, treatment group 2, grade 2
[28] = male wk 19, treatment group 3, grade 1
[29] = male wk 19, treatment group 3, grade 2
[30] = male wk 43, treatment group 1, grade 1
[31] = male wk 43, treatment group 1, grade 2
[32] = male wk 43, treatment group 2, grade 1
[33] = male wk 43, treatment group 2, grade 2
[34] = male wk 43, treatment group 3, grade 1
[35] = male wk 43, treatment group 3, grade 2
[36] = male wk 43, treatment group 3, grade 3
[37] = week 19, male treatment group 2

CC(C)CC(CC(C)C)NC(=O)[C@H](Cc1cnc[nH]1)NC(=O)CNC(=O)[C@@H](NC(=O)[C@H](C)NC(=O)[C@H](Cc1c[nH]c2ccccc12)NC(=O)[C@H](CCC(N)=O)NC(=O)[C@@H](Cc1ccccc1)NC(=O)COCC(=O)Nc1ccc(CNC(=O)CN2CCN(CC(=O)O)CCN(CC(=O)O)CCN(CC(=O)O)CC2)cc1)C(C)C [[^177Lu]Lu-NeoB, metal not drawn]
2/4: Adrenal glands subcapsular cell hyperplasia, incidence [32] | Urinary bladder inflammatory cell foci, incidence [32] | Pancreas inflammatory cell foci, incidence [33] | Kidneys hydronephrosis, incidence (male wk 43, treatment group 2, grade 4) | Liver inflammatory cell foci, incidence [34] | Pancreas inflammatory cell foci, incidence [34] | Marked or severe hydronephrosis, incidence (week 43, female treatment group 3) | Marked or severe hydronephrosis, incidence (week 43, male treatment group 2)
3/4: Liver inflammatory cell foci, incidence [15] | Adrenal glands subcapsular cell hyperplasia, incidence [16] | Ovaries atrophy, incidence (female wk 43, treatment group 2, grade 4) | Adrenal glands subcapsular cell hyperplasia, incidence [34] | Kidneys hydronephrosis, incidence (male wk 43, treatment group 3, grade 4) | Marked or severe hydronephrosis, incidence (week 43, male treatment group 3)
1/3: Adrenal glands subcapsular cell hyperplasia, incidence [1] | Urinary bladder inflammatory cell foci, incidence [1] | Adrenal glands subcapsular cell hyperplasia, incidence [2] | Liver inflammatory cell foci, incidence [3] | Urinary bladder inflammatory cell foci, incidence [3] | Urinary bladder urothelium vacuolation, incidence [4] | Adrenal glands subcapsular cell hyperplasia, incidence [5] | Liver inflammatory cell foci, incidence [5] | Thyroid gland follicular cyst/s, incidence [5] | Urinary bladder inflammatory cell foci, incidence [5] | Urinary bladder urothelium vacuolation, incidence [5] | Spleen extramedullary haematopoiesis, incidence [6] | Brain artifacts, incidence (female wk 5, treatment group 3, grade 3) | Adrenal glands subcapsular cell hyperplasia, incidence [7] | Liver inflammatory cell foci, incidence [7] | Liver inflammatory cell foci, incidence [8] | Urinary bladder inflammatory cell foci, incidence [8] | Kidneys hydronephrosis, incidence (female wk 19, treatment group 1, grade 4) | Pancreas inflammatory cell foci, incidence [9] | Adrenal glands subcapsular cell hyperplasia, incidence [10] | Spleen extramedullary haematopoiesis, incidence [10] | Urinary bladder urothelium vacuolation, incidence [10] | Adrenal glands subcapsular cell hyperplasia, incidence [11] | Pancreas inflammatory cell foci, incidence [11] | Urinary bladder inflammatory cell foci, incidence [11] | Urinary bladder urothelium vacuolation, incidence [11] | Kidneys nephropathy, incidence [12] | Pancreas inflammatory cell foci, incidence [12] | Ureter(s) dilatation, incidence [12] | Urinary bladder inflammatory cell foci, incidence [12] | Urinary bladder urothelium vacuolation, incidence [12] | Urinary bladder inflammatory cell foci, incidence (female wk 19, treatment group 3, grade 3) | Urinary bladder inflammatory cell foci, incidence [13] | Urinary bladder urothelium vacuolation, incidence [13] | Adrenal glands subcapsular cell hyperplasia, incidence (female wk 43, treatment group 1, grade 3) | Adrenal glands subcapsular cell hyperplasia, incidence [20] | Pancreas acinar cell degeneration, incidence [20] | Testes germ cell depletion, incidence [21] | Thyroid gland ectopic thymus, incidence (male wk 5, treatment group 1, grade 3) | Testes germ cell depletion, incidence (male wk 5, treatment group 2, grade 1) | Thyroid gland ectopic thymus, incidence (male wk 5, treatment group 2, grade 3) | Testes germ cell depletion, incidence [22] | Heart inflammatory cell foci, incidence [23] | Pancreas mineralization, incidence [23] | Urinary bladder mineralization, incidence [23] | Urinary bladder urothelium vacuolation, incidence [23] | Adrenal glands subcapsular cell hyperplasia, incidence [24] | Adrenal glands subcapsular cell hyperplasia, incidence [25] | Spleen extramedullary haematopoiesis, incidence [25] | Thyroid gland ectopic thymus, incidence (male wk 19, treatment group 1, grade 3) | Adrenal glands subcapsular cell hyperplasia, incidence [26] | Adrenal glands subcapsular cell hyperplasia, incidence [27] | Kidneys hydronephrosis, incidence (male wk 19, treatment group 2, grade 3) | Urinary bladder urothelium vacuolation, incidence [28] | Adrenal glands subcapsular cell hyperplasia, incidence [29] | Spleen extramedullary haematopoiesis, incidence [29] | Thyroid gland ectopic thymus, incidence (male wk 19, treatment group 3, grade 3) | Kidneys inflammatory cell foci, incidence [30] | Pancreas acinar cell degeneration, incidence [30] | Pancreas inflammatory cell foci, incidence [30] | Skin inflammatory cell foci, incidence [30] | Skin scab formulation, incidence [30] | Urinary bladder inflammatory cell foci, incidence [30] | Adrenal glands subcapsular cell hyperplasia, incidence [31] | Hydronephrosis, incidence (week 19, female treatment group 1)
2/3: Spleen extramedullary haematopoiesis, incidence [2] | Urinary bladder urothelium vacuolation, incidence [3] | Urinary bladder inflammatory cell foci, incidence [4] | Urinary bladder inflammatory cell foci, incidence [6] | Urinary bladder urothelium vacuolation, incidence [6] | Pancreas inflammatory cell foci, incidence [7] | Urinary bladder inflammatory cell foci, incidence [7] | Urinary bladder urothelium vacuolation, incidence [7] | Adrenal glands subcapsular cell hyperplasia, incidence [8] | Adrenal glands subcapsular cell hyperplasia, incidence [9] | Liver inflammatory cell foci, incidence [9] | Urinary bladder inflammatory cell foci, incidence [9] | Urinary bladder urothelium vacuolation, incidence [9] | Adrenal glands subcapsular cell hyperplasia, incidence [12] | Adrenal glands subcapsular cell hyperplasia, incidence (female wk 43, treatment group 1, grade 2) | Spleen extramedullary haematopoiesis, incidence [21] | Prostate gland inflammatory cell foci, incidence [22] | Urinary bladder urothelium vacuolation, incidence [22] | Testes germ cell depletion, incidence [24] | Urinary bladder inflammatory cell foci, incidence [26] | Pancreas inflammatory cell foci, incidence [27] | Kidneys hydronephrosis, incidence (male wk 19, treatment group 2, grade 4) | Adrenal glands subcapsular cell hyperplasia, incidence [28] | Kidneys hydronephrosis, incidence (male wk 19, treatment group 3, grade 4) | Adrenal glands subcapsular cell hyperplasia, incidence [30] | Kidneys nephropathy, incidence [30] | Pancreas inflammatory cell foci, incidence [31] | Hydronephrosis, incidence (week 19, male treatment group 3)
3/3: Adrenal glands subcapsular cell hyperplasia, incidence [3] | Kidneys hydronephrosis, incidence (female wk 19, treatment group 3, grade 4) | Ovaries atrophy, incidence [14] | Uterus endometrial hyperplasia, incidence [14] | Urinary bladder inflammatory cell foci, incidence [22] | Urinary bladder urothelium vacuolation, incidence [26] | Cytoplasmic vacuolation of urothelial cells, incidence (week 5, female treatment group 2, minimal or mild) | Cytoplasmic vacuolation of urothelial cells, incidence (week 5, female treatment group 3, minimal or mild) | Cytoplasmic vacuolation of urothelial cells, incidence (week 5, male treatment group 3, minimal or mild) | Hydronephrosis, incidence (week 19, female treatment group 3) | Cytoplasmic vacuolation of urothelial cells, incidence [37] | Hydronephrosis, incidence [37]
10/11: Marked ovarian atrophy, incidence (week 43, all treated females)
7/9: Cytoplasmic vacuolation of urothelial cells, incidence (week 19, all female treatment groups)
4/4: Adrenal glands subcapsular cell hyperplasia, incidence [17] | Ovaries atrophy, incidence [19]
1/4: Urinary bladder inflammatory cell foci, incidence [15] | Urinary bladder urothelium vacuolation, incidence [15] | Lungs alveolar epithelialization, incidence [16] | Adrenal glands subcapsular cell hyperplasia, incidence (female wk 43, treatment group 2, grade 3) | Kidneys hydronephrosis, incidence (female wk 43, treatment group 2, grade 5) | Pancreas inflammatory cell foci, incidence [17] | Urinary bladder mineralization, incidence [17] | Lungs B-adenoma, incidence [18] | Ureter(s) dilation, incidence [18] | Kidneys hydronephrosis, incidence [19] | Kidneys hydronephrosis, incidence (female wk 43, treatment group 3, grade 5) | Kidneys nephropathy, incidence [32] | Urinary bladder urothelium vacuolation, incidence [32] | Adrenal glands subcapsular cell hyperplasia, incidence [33] | Kidneys nephropathy, incidence [33] | Urinary bladder inflammatory cell foci, incidence [33] | Adrenal glands subcapsular cell hyperplasia, incidence (male wk 43, treatment group 2, grade 3) | Kidneys nephropathy, incidence [34] | Skin inflammatory cell foci, incidence [34] | Testes germ cell depletion, incidence [34] | Adrenal glands subcapsular cell hyperplasia, incidence [35] | Kidneys cyst/s, incidence [35] | Epididymides spermatic granuloma, incidence [36] | Ureter(s) dilation, incidence [36] | Marked or severe hydronephrosis, incidence (week 43, female treatment group 2)
